US12697350B2, “Methods and compositions for treating a premature termination codon-mediated disorder” (Tevard Biosciences, Inc., priority 2019, dated 2026)
Numbering of substitutions follows the chain as printed.

B1: tRNA-Gln-TTG-3-1-TTA-SUP (nucleic acid)
chain: GGCCCCATGGTGTAATGGTTAGCACTCTGGACTTTAAATCCAGCGATCCGAGTTCAAATCTCGGTGGGACCT
modifications: expressed or natural sequence
B2: tRNA-Gln-TTG-1-1-TTA-SUP (nucleic acid)
chain: B1 chain with C3T
modifications: chemistry not fully specified
B3: tRNA-Gln-CTG-1-1-CTA-SUP (nucleic acid)
chain: B1 chain with C3T, T34C
modifications: chemistry not fully specified

Columns and labels:
EGFP-Q69X-TAA reporter [1] = assay: 100 nt 5′ leader sequence library with GlnTTA suppressor tRNA #163, EGFP-Q69X-TAA reporter, Flp-In-293 cells (FIGS. 30, 31, 32); assay type: cell-based, human
Text: FIG. 27 is a schematic representation of the constructs used to test the impact of a 5′ leader sequence on the read-through of a premature termination codon (PTC) by a suppressor tRNA. Constructs contain (i) a 100 bp 5′ leader sequence derived from genomic DNA located upstream of tRNA genes that are highly expressed in HEK293 cells, (ii) a single copy of either the ArgTCA suppressor tRNA #115 (SEQ ID NO: 18) or the GlnTTA suppressor tRNA #163 (SEQ ID NO: 45), and (iii) an RNA polymerase III termination signal (“Term”).
FIG. 30 is a graph depicting the readthrough activity of the indicated GlnTTA suppressor tRNA expression constructs as measured by flow cytometry in Flp-In-293 cells at ~24 hours post transfection. […]
FIG. 31 is a graph depicting the readthrough activity of the indicated GlnTTA suppressor tRNA expression constructs as measured by flow cytometry in Flp-In-293 cells at ~24 hours post transfection. […]
The leader sequences in combination with the ArgTCA suppressor tRNA #115 (SEQ ID NO: 18) or the GlnTTA suppressor tRNA #163 (SEQ ID NO: 45) were tested for PTC readthrough activity by flow cytometry in cell lines co-transfected with an EGFP-R96X-TGA reporter (SEQ ID NO: 31) for ArgTCA constructs or an EGFP-Q69X-TAA reporter (SEQ ID NO: 175) for GlnTTA constructs.

Neuro-2a cells = assay type: cell-based, mouse
Description: FIG. 23 is a graph depicting cell viability from FIG. 22 as measured by flow cytometry at ~48 hours post transfection. Neuro-2a cells were transfected with an expression construct containing the EGFP-R96X-TGA reporter (“GFP-PTC”) and either (i) transfected with an expression construct including the ArgTCA suppressor tRNA #115 (SEQ ID NO: 18) at the indicated copy number on the same construct, or (ii) treated with ataluren at the indicated concentration, (iii) treated with gentamicin at the indication concentration, or (iv) treated with G418 at the indicated concentration. For all experimental conditions, cell culture medium was replaced with fresh medium ~6 hour after transfection and the indicated drugs at the indicated concentrations were added at this point. A reporter containing wildtype GFP without a PTC (“WT-GFP”) was used as a control. “Mock” indicates mock transfected cells. “4×TCG” indicates cells transfected with an expression construct that contains four copies of a wild-type Arg-tRNA with a TCG anticodon and the EGFP-R96X-TGA reporter. Cell viability was assessed by flow cytometry using 7-Amino Actinomycin D (7-AAD), a membrane impermeant dye that is generally excluded from viable cells.
FIG. 34 is a graph depicting cell viability from FIG. 33 as measured by flow cytometry at ~48 hours post transfection. […] Cell viability was assessed by flow cytometry using 7-Amino Actinomycin D (7-AAD), a membrane impermeant dye that is generally excluded from viable cells.
FIG. 36 is a graph depicting cell viability from FIG. 35 as measured by flow cytometry at ~48 hours post transfection. […] Cell viability was assessed by flow cytometry using 7-Amino Actinomycin D (7-AAD), a membrane impermeant dye that is generally excluded from viable cells. […]

EGFP-Q69X-TAA reporter [2] = assay: PTC readthrough of GlnTTA suppressor tRNA #002 versus nonsense suppression drugs, EGFP-Q69X-TAA reporter, Neuro-2a cells (FIG. 33); assay type: cell-based, mouse; settings: versus ataluren, gentamicin, G418 (FIG. 33)
Description: FIG. 33 is a graph depicting the percentage of EGFP positive cells as measured by flow cytometry in three independent experiments at ~48 hours post transfection. Neuro-2a cells were transfected with an expression construct containing the EGFP-Q69X-TAA reporter (“EGFP-PTC”) (SEQ ID NO: 175) and either (i) including the GlnTTA suppressor tRNA #002 (SEQ ID NO: 36) at the indicated copy number on the same construct, or (ii) treated with ataluren at the indicated concentration, (iii) treated with gentamicin at the indication concentration, or (iv) treated with G418 at the indicated concentration. […]
(§1) The suppressor tRNAs were tested alongside nonsense suppression drugs translarna (ataluren), gentamicin, and G418 (geneticin). PTC readthrough activity was measured in Neuro-2a cells ~48 hours after transfection with an expression construct containing a CAG:NLS-EGFP (Q69X-TAA) reporter (as described in Example 4, SEQ ID NO: 175) and either (i) including a Gln suppressor tRNA (either #002, tRNA-Gln-TTG-1-1-TTA-SUP, SEQ ID NO: 36, or #196, tRNA-Gln-TTG-1-1-CTA-SUP, SEQ ID NO: 178, both as described in Example 4) at the indicated copy number on the same construct, or (ii) treated with ataluren, (iii) treated with gentamicin, or (iv) treated with G418. […] PTC readthrough activity was measured as the percentage of EGFP positive cells as measured by flow cytometry. […]

EGFP-Q69X-TAG reporter = assay: PTC readthrough of GlnCTA suppressor tRNA #196 versus nonsense suppression drugs, EGFP-Q69X-TAG reporter, Neuro-2a cells (FIG. 35); assay type: cell-based, mouse; settings: versus ataluren, gentamicin, G418 (FIG. 35)
Description: FIG. 35 is a graph depicting the percentage of EGFP positive cells as measured by flow cytometry in three independent experiments at ~48 hours post transfection. Neuro-2a cells were transfected with an expression construct containing the EGFP-Q69X-TAG reporter (“EGFP-PTC”) (SEQ ID NO: 176) and either (i) including the GlncTA suppressor tRNA #196 (SEQ ID NO: 178) at the indicated copy number on the same construct, or (ii) treated with ataluren at the indicated concentration, (iii) treated with gentamicin at the indication concentration, or (iv) treated with G418 at the indicated concentration. […]
as §1

Row | Molecule | readthrough activity when combined with the identified leader sequences (EGFP-Q69X-TAA reporter [1]) | cell viability (Neuro-2a cells) | PTC readthrough compared with nonsense suppression drugs (EGFP-Q69X-TAA reporter [2]) | PTC readthrough compared with nonsense suppression drugs (EGFP-Q69X-TAG reporter)
1 | B1 | showed high readthrough activity |  |  | 
2 | B2 |  | not accompanied by a decrease in cell viability | greater readthrough than any of the nonsense suppression drugs | 
3 | B3 |  | not accompanied by a decrease in cell viability |  | greater readthrough than any of the nonsense suppression drugs
